Measurements from PMC9361567.
pKd: −log10 of the molar value. Where “and” joins values, the source holds several entries; their conditions need not be identical. Identical values can stand only once.

Columns and labels:
[1] = target: HALO::PLP^584-1811 WT (purified from Sf9) (Drosophila); assay: mass photometry
[2] = target: KHC + LC (Kinesin-1 HC-LCs complex) (Drosophila) (UniProt P17210); assay: BLI
[3] = target: KHC^Δh2 + LC (Drosophila) (UniProt P17210); assay: BLI

stoichiometry N [1]: 2 and 4
pKd [2]: 5.77
pKd [3]: 7.19
Substance: HALO::PLP^584-1811 WT (purified from Sf9) (domain or fragment)
